Data: patent US20130247232A1 (PRECISION BIOLOGICS, published 2013)
Ends that are not written are not given here.

T1: MUC5AC truncation construct 1-85 (human, UniProt P98088 1734-1794)
T1 chain: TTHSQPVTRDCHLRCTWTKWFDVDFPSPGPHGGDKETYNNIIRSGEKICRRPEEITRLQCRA

T2: MUC5AC truncation construct 1-136 (human, UniProt P98088 3212-4055)
T2 sequence: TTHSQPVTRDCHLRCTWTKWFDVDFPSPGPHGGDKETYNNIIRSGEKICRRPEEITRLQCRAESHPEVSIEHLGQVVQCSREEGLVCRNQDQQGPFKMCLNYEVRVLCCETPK

B1: NEO-101 antibody (chimeric) (antibody, V domains shown)
VH: QVQLKESGPDLVAPSQSLSITCTVSGFSLSKFGVNWVRQPPGKGLEWLGVIWGDGSTSYNSGLISRLSISKENSKSQVFLKLNSLQADDTATYYCVKPGGDYWGHGTSVTVSS
VL: QVVLTQSPVIMSASPGEKVTMTCSASSSISYMYWYQQKPGTSPKRWIYDTSKLASGVPARFSGSGSGTSYSLTISNMEAGDAATYYCHQRDSYPWTFGGGTNLEIK
notes: Chimeric, murine variable regions with human constant regions; Used unlabeled, biotinylated, FITC-labeled or coupled to Dynal beads depending on the assay; also called NPC-1C; NPC-1-C

Key:
[1] = target: B1; test: ELISA, biotinylated peptide on NEO-101 coated plate
Protocol: To solve the poor binding of peptides to 96 well plate, peptides were biotinylated using EZ-link micro NHS Biotinylation kit (Pierce Cat#21955), and labeling efficiency checked by dot blot (50%). […] The solution was blocked with 200 μl of 1% milk in TBS at RT for 20 min, Aliquots of 100 μl peptide-biotin (1 μg/ml) in 0.1% milk-TBS were added, and incubated at RT of 2 hr, followed by three washes with TBST. Streptavidin-HRP (100 μl of 1:2000 diluted in 1:10 diluted blocking buffer) was added, and the wells incubated at RT for 1 hr, followed by three washed. TMB was then added, and the wells were read at 450 nm. Positive controls for NPC-1C binding used 4B6-biotin. The results are shown in FIG. 11, which indicates biotinlyated peptides bind to NPC-1C coated plate.

[2] = target: T1, MUC5AC truncation construct 1-85; test: immunofluorescence of transfected 293T cells
Protocol: (§1) Cells were transiently transfected with 2 μg of MUC5AC constructs of Table 8 with LIPOFECTAMINE®. Cells were grown for about 72 hours, fixed with about 4% PFA in PBS, washed with PBS, permeabilized with about 0.2% […] in PBS and washed with PBS. […] Cells were washed with PBS and second anti human-FITC antibody (1:500) was added to all wells and to the second antibody control wells. Cells were washed and mounted on slides with DAPI hard mount. Cover slides were allowed to sit over night at about 4° C. Slides were visualized with a Nikon Eclipse Ti microscope with an Andor camera. At least 3 random fields were counted per transfection.

[3] = target: T2, MUC5AC truncation construct 1-136; test: immunofluorescence of transfected 293T cells
Protocol: as §1

[4] = target: B1; test: competition: phage premixed with NEO-101-coupled beads, then rosetting of CFPAC1 cells
Protocol: The M13 clones identified by the biopanning were also immunoassayed using magnetic beads. […] CFPAC1 cells (30 μl of 10⁶cells/ml) were added and incubated at 4° C. for 30 min. Rosetted cells were counted (>8 beads/cell).

Binder | Positive rosette cells (%) [4] [%] | also measured
YSHSVHAIEDNWSPRGGGGS (also: biotinylated (position not given here), also called negative control) [synthetic peptide 4-1-3-C11 (control peptide)] | – | binding result [1]: no binding (tested: 1 µg/ml)
B1 | – | binding result [2]: no binding (tested: about 2 µg/ml); binding result [3]: no binding (tested: about 2 µg/ml)
M13 phage clone 4-1-2-C5 (other, Whole phage particle displaying the peptide on pIII) WHTLPEKSLDENGGGSAETVESCLAKPHTENSFTNVWKDDKTLDRYANYEGCLWNATGVVVCTGDETQCYGTWVPIGLAIPENEGGGSEGGGSEGGGSEGGGTKPPEYGDTPIPGYTYINPLDGTYPPGTEQNPANPNPSLEESQPLNTFMFQNNRFRNRQGALTVYTGTVTQGTDPVKTYYQYTPVSSKAMYDAYWNGKFRDCAFHSGFNEDPFVCEYQGQSSDLPQPPVNAGGGSGGGSGGGSEGGGSEGGGSEGGGSEGGGSGGGSGSGDFDYEKMANANKGAMTENADENALQSDAKGKLDSVATDYGAAIDGFIGDVSGLANGNGATGDFAGSNSQMAQVGDGDNSPLMNNFRQYLPSLPQSVECRPFVFSAGKPYEFSIDCDKINLFRGVFAFLLYVATFMYVFSTFANILRNKES | 0 | –
M13 phage clone 4-1-3-C11 (other, Whole phage particle; its peptide served as the control peptide) VHAIEDNWSPRGGGGSAETVESCLAKPHTENSFTNVWKDDKTLDRYANYEGCLWNATGVVVCTGDETQCYGTWVPIGLAIPENEGGGSEGGGSEGGGSEGGGTKPPEYGDTPIPGYTYINPLDGTYPPGTEQNPANPNPSLEESQPLNTFMFQNNRFRNRQGALTVYTGTVTQGTDPVKTYYQYTPVSSKAMYDAYWNGKFRDCAFHSGFNEDPFVCEYQGQSSDLPQPPVNAGGGSGGGSGGGSEGGGSEGGGSEGGGSEGGGSGGGSGSGDFDYEKMANANKGAMTENADENALQSDAKGKLDSVATDYGAAIDGFIGDVSGLANGNGATGDFAGSNSQMAQVGDGDNSPLMNNFRQYLPSLPQSVECRPFVFSAGKPYEFSIDCDKINLFRGVFAFLLYVATFMYVFSTFANILRNKES | 38 | –
M13 phage clone 4-1-4-C12 (other, Whole phage particle displaying the peptide on pIII) SLPDDWFRYINYGGGSAETVESCLAKPHTENSFTNVWKDDKTLDRYANYEGCLWNATGVVVCTGDETQCYGTWVPIGLAIPENEGGGSEGGGSEGGGSEGGGTKPPEYGDTPIPGYTYINPLDGTYPPGTEQNPANPNPSLEESQPLNTFMFQNNRFRNRQGALTVYTGTVTQGTDPVKTYYQYTPVSSKAMYDAYWNGKFRDCAFHSGFNEDPFVCEYQGQSSDLPQPPVNAGGGSGGGSGGGSEGGGSEGGGSEGGGSEGGGSGGGSGSGDFDYEKMANANKGAMTENADENALQSDAKGKLDSVATDYGAAIDGFIGDVSGLANGNGATGDFAGSNSQMAQVGDGDNSPLMNNFRQYLPSLPQSVECRPFVFSAGKPYEFSIDCDKINLFRGVFAFLLYVATFMYVFSTFANILRNKES | 0 | –
M13 phage clone 4-1-3-C8 (other, Whole phage particle displaying the peptide on pIII) WHTLPESGEVTSGGGSAETVESCLAKPHTENSFTNVWKDDKTLDRYANYEGCLWNATGVVVCTGDETQCYGTWVPIGLAIPENEGGGSEGGGSEGGGSEGGGTKPPEYGDTPIPGYTYINPLDGTYPPGTEQNPANPNPSLEESQPLNTFMFQNNRFRNRQGALTVYTGTVTQGTDPVKTYYQYTPVSSKAMYDAYWNGKFRDCAFHSGFNEDPFVCEYQGQSSDLPQPPVNAGGGSGGGSGGGSEGGGSEGGGSEGGGSEGGGSGGGSGSGDFDYEKMANANKGAMTENADENALQSDAKGKLDSVATDYGAAIDGFIGDVSGLANGNGATGDFAGSNSQMAQVGDGDNSPLMNNFRQYLPSLPQSVECRPFVFSAGKPYEFSIDCDKINLFRGVFAFLLYVATFMYVFSTFANILRNKES | 0 | –
M13 phage clone 4-1-3-C9 (other, Whole phage particle displaying the peptide on pIII) FPEDYFRYTNQKGGGSAETVESCLAKPHTENSFTNVWKDDKTLDRYANYEGCLWNATGVVVCTGDETQCYGTWVPIGLAIPENEGGGSEGGGSEGGGSEGGGTKPPEYGDTPIPGYTYINPLDGTYPPGTEQNPANPNPSLEESQPLNTFMFQNNRFRNRQGALTVYTGTVTQGTDPVKTYYQYTPVSSKAMYDAYWNGKFRDCAFHSGFNEDPFVCEYQGQSSDLPQPPVNAGGGSGGGSGGGSEGGGSEGGGSEGGGSEGGGSGGGSGSGDFDYEKMANANKGAMTENADENALQSDAKGKLDSVATDYGAAIDGFIGDVSGLANGNGATGDFAGSNSQMAQVGDGDNSPLMNNFRQYLPSLPQSVECRPFVFSAGKPYEFSIDCDKINLFRGVFAFLLYVATFMYVFSTFANILRNKES | 0 | –
